Biological target: T1, myosin S2Δ, the first 126 amino acids of myosin S2 (cardiac myosin)
T1 construct: cardiac myosin heavy chain, S2 domain, first 126 amino acids of S2
Assay: MST; C1mC2 species (or native full-length cMyBP-C) titrated against myosin S2Δ; normalized MST curves; conditions in SI Appendix
Details: both partners purified

B1: C1mC2-S288A monophosphorylated by PKA (C1mC2-S288A-1P) (domain or fragment)
chain: PIGLFLMRPQDGEVTVGGSIVFSARVAGASLLKPPVVKWFKGKWVDLSSKVGQHLQLHDSYDRASKVYLFELHITDAQATSAGGYRCEVSTKDKFDSCNFNLTVHEAIGSGDLDLRSAFRRTSLAGTGRRTADSHEDAGTLDFSSLLKKSSSFRRDSKLEAPAEEDVWEILRQAPPSEYERIAFQHGVTDLRGMLKRLKGMKHDEKKSTAFQKKLEPAYQVNKGHKIRLTVELADPDAEVKWLKNGQEIQMSGRYIFESIGAKRTLTISQCSLADDAAYQCVVGGEKCSTELFVKEP
modifications: one phosphate (monophosphorylated by PKA); the phosphorylated residue is not given
With B1 as the binder, how does the Kd read?
Its Kd is roughly 20 µM.
